One substance from article PMC7667529 can be followed below.

The experiment deals with megalin (low-density lipoprotein receptor-related protein 2) (mouse (endogenous in hippocampal neurons)) (UniProt A2ARV4).
Sequence of megalin (low-density lipoprotein receptor-related protein 2) (mouse (endogenous in hippocampal neurons)) (A2ARV4 26-4660): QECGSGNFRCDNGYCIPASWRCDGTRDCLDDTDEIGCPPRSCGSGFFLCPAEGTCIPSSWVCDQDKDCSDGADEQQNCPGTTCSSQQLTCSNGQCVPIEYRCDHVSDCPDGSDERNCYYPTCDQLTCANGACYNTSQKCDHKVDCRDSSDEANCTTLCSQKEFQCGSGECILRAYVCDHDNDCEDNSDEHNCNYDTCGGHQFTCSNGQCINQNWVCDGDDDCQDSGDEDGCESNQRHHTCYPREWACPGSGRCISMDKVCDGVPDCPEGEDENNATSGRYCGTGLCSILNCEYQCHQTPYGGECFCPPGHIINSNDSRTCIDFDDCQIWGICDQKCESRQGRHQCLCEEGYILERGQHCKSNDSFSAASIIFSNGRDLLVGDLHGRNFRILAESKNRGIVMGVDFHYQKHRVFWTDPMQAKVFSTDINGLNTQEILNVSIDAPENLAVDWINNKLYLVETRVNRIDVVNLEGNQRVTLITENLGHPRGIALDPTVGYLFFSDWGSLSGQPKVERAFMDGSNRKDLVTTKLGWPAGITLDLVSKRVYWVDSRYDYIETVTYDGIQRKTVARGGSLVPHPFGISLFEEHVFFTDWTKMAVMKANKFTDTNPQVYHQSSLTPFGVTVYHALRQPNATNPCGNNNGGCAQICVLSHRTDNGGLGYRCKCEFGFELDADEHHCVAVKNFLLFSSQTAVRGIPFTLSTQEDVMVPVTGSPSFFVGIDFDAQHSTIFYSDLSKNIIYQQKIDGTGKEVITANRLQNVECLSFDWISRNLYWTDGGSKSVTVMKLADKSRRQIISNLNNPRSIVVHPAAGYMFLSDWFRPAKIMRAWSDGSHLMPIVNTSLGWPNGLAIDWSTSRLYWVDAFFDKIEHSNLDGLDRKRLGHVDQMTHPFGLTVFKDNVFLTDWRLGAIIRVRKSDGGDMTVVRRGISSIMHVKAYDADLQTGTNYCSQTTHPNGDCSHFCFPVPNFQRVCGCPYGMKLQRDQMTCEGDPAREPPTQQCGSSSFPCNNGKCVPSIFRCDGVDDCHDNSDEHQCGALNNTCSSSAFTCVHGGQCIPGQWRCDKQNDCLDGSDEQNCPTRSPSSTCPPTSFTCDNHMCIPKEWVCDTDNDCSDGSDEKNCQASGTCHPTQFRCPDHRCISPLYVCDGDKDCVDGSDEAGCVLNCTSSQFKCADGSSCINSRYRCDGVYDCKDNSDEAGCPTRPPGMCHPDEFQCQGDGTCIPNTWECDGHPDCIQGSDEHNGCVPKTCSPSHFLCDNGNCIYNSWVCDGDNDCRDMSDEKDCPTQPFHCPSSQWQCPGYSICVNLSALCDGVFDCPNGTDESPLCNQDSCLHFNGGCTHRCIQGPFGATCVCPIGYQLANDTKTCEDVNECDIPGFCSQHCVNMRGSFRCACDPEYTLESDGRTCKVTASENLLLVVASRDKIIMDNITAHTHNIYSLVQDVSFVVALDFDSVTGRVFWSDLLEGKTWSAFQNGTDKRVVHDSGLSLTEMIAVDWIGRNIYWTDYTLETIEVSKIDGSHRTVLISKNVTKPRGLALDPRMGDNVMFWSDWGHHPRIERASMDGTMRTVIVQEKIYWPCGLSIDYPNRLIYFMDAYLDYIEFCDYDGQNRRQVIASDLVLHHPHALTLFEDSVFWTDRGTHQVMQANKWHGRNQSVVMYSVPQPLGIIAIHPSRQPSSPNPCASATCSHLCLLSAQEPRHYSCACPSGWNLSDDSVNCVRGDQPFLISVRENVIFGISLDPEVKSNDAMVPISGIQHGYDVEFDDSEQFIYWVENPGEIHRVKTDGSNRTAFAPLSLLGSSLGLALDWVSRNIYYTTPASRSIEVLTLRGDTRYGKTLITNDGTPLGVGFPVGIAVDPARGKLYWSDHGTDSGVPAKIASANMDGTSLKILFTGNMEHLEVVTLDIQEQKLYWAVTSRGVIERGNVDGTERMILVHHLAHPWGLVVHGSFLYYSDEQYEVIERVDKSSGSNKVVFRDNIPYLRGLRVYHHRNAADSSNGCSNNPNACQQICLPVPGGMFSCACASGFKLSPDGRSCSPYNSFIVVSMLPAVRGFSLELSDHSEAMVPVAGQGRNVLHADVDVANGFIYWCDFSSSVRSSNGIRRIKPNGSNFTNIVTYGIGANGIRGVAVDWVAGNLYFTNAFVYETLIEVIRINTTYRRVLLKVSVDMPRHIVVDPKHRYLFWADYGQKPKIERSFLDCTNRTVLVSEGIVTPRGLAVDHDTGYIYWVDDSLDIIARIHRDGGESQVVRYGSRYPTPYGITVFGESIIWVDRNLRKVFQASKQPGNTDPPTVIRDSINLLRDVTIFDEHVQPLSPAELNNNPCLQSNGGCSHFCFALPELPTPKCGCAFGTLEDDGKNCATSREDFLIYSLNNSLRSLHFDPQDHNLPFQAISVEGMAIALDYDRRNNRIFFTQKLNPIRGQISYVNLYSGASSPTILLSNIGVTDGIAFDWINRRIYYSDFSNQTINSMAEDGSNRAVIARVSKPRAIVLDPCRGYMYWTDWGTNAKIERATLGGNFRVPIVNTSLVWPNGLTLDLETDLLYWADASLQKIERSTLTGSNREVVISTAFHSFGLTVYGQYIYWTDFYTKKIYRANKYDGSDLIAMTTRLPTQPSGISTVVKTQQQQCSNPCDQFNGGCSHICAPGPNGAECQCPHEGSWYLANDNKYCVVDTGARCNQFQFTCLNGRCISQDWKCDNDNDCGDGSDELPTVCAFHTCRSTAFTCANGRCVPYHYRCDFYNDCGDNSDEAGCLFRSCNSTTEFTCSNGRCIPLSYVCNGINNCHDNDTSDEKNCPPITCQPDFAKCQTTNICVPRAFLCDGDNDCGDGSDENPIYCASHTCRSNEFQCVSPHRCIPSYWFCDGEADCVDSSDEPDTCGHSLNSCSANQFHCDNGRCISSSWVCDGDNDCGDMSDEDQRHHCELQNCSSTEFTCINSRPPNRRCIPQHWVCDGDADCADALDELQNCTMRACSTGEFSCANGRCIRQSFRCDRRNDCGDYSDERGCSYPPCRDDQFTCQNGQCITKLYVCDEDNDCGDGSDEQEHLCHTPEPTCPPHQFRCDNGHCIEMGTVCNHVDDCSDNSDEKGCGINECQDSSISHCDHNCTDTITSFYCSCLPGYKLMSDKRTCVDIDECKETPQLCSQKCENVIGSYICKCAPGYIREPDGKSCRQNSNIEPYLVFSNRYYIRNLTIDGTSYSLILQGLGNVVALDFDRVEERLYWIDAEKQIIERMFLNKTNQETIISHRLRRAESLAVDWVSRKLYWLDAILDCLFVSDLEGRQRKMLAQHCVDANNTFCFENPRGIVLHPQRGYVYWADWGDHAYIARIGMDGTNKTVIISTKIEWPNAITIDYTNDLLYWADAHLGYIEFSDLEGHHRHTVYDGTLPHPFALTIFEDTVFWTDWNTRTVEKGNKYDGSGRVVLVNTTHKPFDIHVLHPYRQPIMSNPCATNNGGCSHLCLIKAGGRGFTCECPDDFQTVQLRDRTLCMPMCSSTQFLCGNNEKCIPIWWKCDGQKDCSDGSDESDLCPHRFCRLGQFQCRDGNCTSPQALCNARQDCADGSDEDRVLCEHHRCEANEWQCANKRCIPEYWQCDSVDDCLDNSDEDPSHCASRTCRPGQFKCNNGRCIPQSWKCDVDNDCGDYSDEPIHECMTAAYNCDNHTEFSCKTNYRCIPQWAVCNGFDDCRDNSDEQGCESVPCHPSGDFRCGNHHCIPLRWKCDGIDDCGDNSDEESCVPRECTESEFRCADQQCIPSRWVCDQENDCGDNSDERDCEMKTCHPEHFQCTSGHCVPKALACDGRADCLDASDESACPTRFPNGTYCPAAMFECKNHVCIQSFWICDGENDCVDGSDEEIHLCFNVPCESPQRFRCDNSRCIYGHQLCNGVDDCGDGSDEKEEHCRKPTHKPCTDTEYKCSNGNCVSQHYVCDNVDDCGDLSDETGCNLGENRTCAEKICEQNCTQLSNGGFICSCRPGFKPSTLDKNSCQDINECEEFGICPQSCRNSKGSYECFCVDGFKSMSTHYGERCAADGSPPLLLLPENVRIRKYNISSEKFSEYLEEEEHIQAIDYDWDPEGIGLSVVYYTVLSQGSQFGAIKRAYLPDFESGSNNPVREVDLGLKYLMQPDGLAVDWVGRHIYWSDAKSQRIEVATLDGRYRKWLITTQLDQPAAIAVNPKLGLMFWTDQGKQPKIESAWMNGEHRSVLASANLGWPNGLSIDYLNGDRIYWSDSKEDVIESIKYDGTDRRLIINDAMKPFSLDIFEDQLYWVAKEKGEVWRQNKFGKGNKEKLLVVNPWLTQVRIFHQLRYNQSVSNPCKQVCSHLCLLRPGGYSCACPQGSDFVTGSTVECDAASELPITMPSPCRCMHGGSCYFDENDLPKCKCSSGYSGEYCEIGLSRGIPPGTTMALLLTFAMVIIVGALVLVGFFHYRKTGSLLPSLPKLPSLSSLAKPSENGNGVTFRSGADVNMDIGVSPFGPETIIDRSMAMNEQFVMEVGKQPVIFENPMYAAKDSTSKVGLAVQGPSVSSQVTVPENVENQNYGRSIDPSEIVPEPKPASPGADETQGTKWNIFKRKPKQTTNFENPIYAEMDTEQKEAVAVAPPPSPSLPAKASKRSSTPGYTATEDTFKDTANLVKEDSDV

Take “recombinant mouse transthyretin (from UniProt P07309 21-147) (ligand)”: the LRP2-ICD level (western blot, anti-GFP) in TTR KO neurons transfected with short-megalin-GFP and stimulated with recombinant mouse TTR (55 µg/ml, 4 h) turned out to be 50 % increase; the LRP2-ICD level (western blot, anti-megalin) in non-transfected WT hippocampal neurons (15 DIV) after 5 min with recombinant mouse TTR (55 µg/ml) is 5 fold.
